B1: 26 (nucleic acid, listed as Homo sapiens)
chain: AGCCAAGGAGCAATAACTGAACGTTTAAGAAGCTTCAGTATGCATGATTTAACAACTATCCAAGGTGATGAGCCTGTGGGACAAAGACCATACCAACCTCTACCAGAAGCAAAAAAGAAAAGTAAACCAGCCCCCAGTGAATCAGCAGGTTATGGAATTCCACTGAAAGACGGAGATGAGAAAACAGATGAAGAAGCAGAGGGGCCATATTCAGATAATGAGATGTTAACACACAAAGGGCTTCGAAGATCGCAAAGCATGAAATCTGTGAAAACCACCAAAGGCCGCAAAGAGGTGCGGTACGGGTCACTAAAATACAAAGTGAAGAAACGACCACAAGTGTATTTTTAGTCATCTACACGTCAAATATCCCAAGACAGATTATGCTAAATACATCGACTTCATCTTCTAACATGATATATTCAGGATTTACACATTAAAATGATTATTT
modifications: CDS (40)..(348)
B2: 237 (nucleic acid, listed as Homo sapiens)
chain: TGCGCGTGCGCAGGGATAAGAGAGCGGTCTGGACAGCGCGTGGCCGGCGCCGCTGTGGGGACAGCATGAGCGGCGGTTGGATGGCGCAGGTTGGAGCGTGGCGAACAGGGGCTCTGGGCCTGGCGCTGCTGCTGCTGCTCGGCCTCGGACTAGGCCTGGAGGCCGCCGCGAGCCCGCTTTCCACCCCGACCTCTGCCCAGGCCGCAGGCCCCAGCTCAGGCTCGTGCCCACCCACCAAGTTCCAGTGCCGCACCAGTGGCTTATGCGTGCCCCTCACCTGGCGCTGCGACAGGGACTTGGACTGCAGCGATGGCAGCGATGAGGAGGAGTGCAGGATTGAGCCATGTACCCAGAAAGGGCAATGCCCACCGCCCCCTGGCCTCCCCTGCCCCTGCACCGGCGTCAGTGACTGCTCTGGGGGAACTGACAAGAAACTGCGCAACTGCAGCCGCCTGGCCTGCCTAGCAGGCGAGCTCCGTTGCACGCTGAGCGATGACTGCATTCCACTCACGTGGCGCTGCGACGGCCACCCAGACTGTCCCGACTCCAGCGACGAGCTCGGCTGTGGAACCAATGAGATCCTCCCGGAAGGGGATGCCACAACCATGGGGCCCCCTGTGACCCTGGAGAGTGTCACCTCTCTCAGGAATGCCACAACCATGGGGCCCCCTGTGACCCTGGAGAGTGTCCCCTCTGTCGGGAATGCCACATCCTCCTCTGCCGGAGACCAGTCTGGAAGCCCAACTGCCTATGGGGTTATTGCAGCTGCTGCGGTGCTCAGTGCAAGCCTGGTCACCGCCACCCTCCTCCTTTTGTCCTGGCTCCGAGCCCAGGAGCGCCTCCGCCCACTGGGGTTACTGGTGGCCATGAAGGAGTCCCTGCTGCTGTCAGAACAGAAGACCTCGCTGCCCTGAGGACAAGCACTTGCCACCACCGTCACTCAGCCCTGGGCGTAGCCGGACAGGAGGAGAGCAGTGATGCGGATGGGTACCCGGGCACACCAGCCCTCAGAGACCTGAGCTCTTCTGGCCACGTGGAACCTCGAACCCGAGCTCCTGCAGAAGTGGCCCTGGAGATTGAGGGTCCCTGGACACTCCCTATGGAGATCCGGGGAGCTAGGATGGGGAACCTGCCACAGCCAGAACTGAGGGGCTGGCCCCAGGCAGCTCCCAGGGGGTAGAACGGCCCTGTGCTTAAGACACTCCTGCTGCCCCGTCTGAGGGTGGCGATTAAAGTTGCT
modifications: CDS (66)..(911)
B3: 217 (nucleic acid, listed as Homo sapiens)
chain: AAGCAATGCGCAGCAGCCAGATCTGTCCAAAGCAGTTTCACTCTCAATGGGACTGTATATGGGAGAGACAGAAACAAAAGTGATGGGAAATGACCTGGGATTCCCACAGCAGGGCCAAATCAGCCTTTCCTCGGGGGAAACAGACTTAAAGCTTTTGGAAGAAAGCATTGCAAACCTCAATAGGTCGACCAGTGTTCCAGAGAACCCCAAGAGTTCAGCATCCACTGCTGTGTCTGCTGCCCCCACAGAGAAGGAGTTTCCAAAAACTCACTCTGATGTATCTTCAGAACAGCAACATTTGAAGGGCCAGACTGGCACCAACGGTGGCAATGTGAAATTGTATACCACAGACCAAAGCACCTTTGACATTTTGCAGGATTTGGAGTTTTCTTCTGGGTCCCCAGGTAAAGAGACGAATGAGAGTCCTTGGAGATCAGACCTGTTGATAGATGAAAACTGTTTGCTTTCTCCTCTGGCGGGAGAAGACGATTCATTCCTTTTGGAAGGAAACTCGAATGAGGACTGCAAGCCTCTCATTTTACCGGACACTAAACCCAAAATTAAGGATAATGGAGATCTGGTTTTGTCAAGCCCCAGTAATGTAACACTGCCCCAAGTGAAAACAGAAAAAGAAGATTTCATCGAACTCTGCACCCCTGGGGTAATTAAGCAAGAGAAACTGGGCACAGTTTACTGTCAGGCAAGCTTTCCTGGAGCAAATATAATTGGTAATAAAATGTCTGCCATTTCTGTTCATGGTGTGAGTACCTCTGGAGGACAGATGTACCACTATGACATGAATACAGCATCCCTTTCTCAACAGCAGGATCAGAAGCCTATTTTTAATGTCATTCCACCAATTCCCGTTGGTTCCGAAAATTGGAATAGGTGCCAAGGATCTGGAGATGACAACTTGACTTCTCTGGGGACTCTGAACTTCCCTGGTCGAACAGTTTTTTCTAATGGCTATTCAAGCCCCAGCATGAGACCAGATGTAAGCCCTCCTCCATCCAGCTCCTCAACAGCAACAACAGGACCACCTCCCAAACTCTGCCTGGTGTGCTCTGATGAAGCTTCAGGATGTTATTATGGAGTCTTAACTTGTGGAAGCTGTAAAGTTTTCTTCAAAAGAGCAGTGGAAGGACAGCACAATTACCTATGTGCTGGAAGGAATGATTGCATCATCGATAAAATTCGAAGAAAAAACTGCCCAGCATGCCGCTATCGAAAATGTCTTCAGGCTGGAATGAACCTGGAAGCTCG
modifications: CDS (47)..(1261)
B4: 219 (nucleic acid, listed as Homo sapiens)
chain: GTATACCACAGACCAAAGCACCTTTGACATTTTGCAGGATTTGGAGTTTTCTTCTGGGTCCCCAGGTAAAGAGACGAATGAGAGTCCTTGGAGATCAGACCTGTTGATAGATGAAAACTGTTTGCTTTCTCCTCTGGCGGGAGAAGACGATTCATTCCTTTTGGAAGGAAACTCGAATGAGGACTGCAAGCCTCTCATTTTACCGGACACTAAACCCAAAATTAAGGATAATGGAGATCTGGTTTTGTCAAGCCCCAGTAATGTAACACTGCCCCAAGTGAAAACAGAAAAAGAAGATTTCATCGAACTCTGCACCCCTGGGGTAATTAAGCAAGAGAAACTGGGCACAGTTTACTGTCAGGCAAGCTTTCCTGGAGCAAATATAATTGGTAATAAAATGTCTGCCATTTCTGTTCATGGTGTGAGTACCTCTGGAGGACAGATGTACCACTATGACATGAATACAGCATCCCTTTCTCAACAGCAGGATCAGAAGCCTATTTTTAATGTCATTCCACCAATTCCCGTTGGTTCCGAAAATTGGAATAGGTGCCAAGGATCTGGAGATGACAACTTGACTTCTCTGGGGACTCTGAACTTCCCTGGTCGAACAGTTTTTTCTAATGGCTATTCAAGCCCCAGCATGAGACCAGATGTAAGCTCTCCTCCATCCAGCTCCTCAACAGCAACAACAGGACCACCTCCCAAACTCTGCCTGGTGTGCTCTGATGAAGCTTCAGGATGTCATTATGGAGTCTTAACTTGTGGAAGCTGTAAAGTTTTCTTCAAAAGAGCAGTGGAAGGACAGCACAATTACCTATGTGCTGGAAGGAATGATTGCATCATCGATAAAATTCGAAGAAAAAACTGCCCAGCATGCCGCTATCGAAAATGTCTTCAGGCTGGAATGAACCTGGAAGCTCGAAAAAC
modifications: CDS (398)..(928)

System: STAT6
Experiment: Screening of full-length cDNA clones for promotion of STAT6 activation (luciferase reporter N4×8-luc)
Assay type: cell-based
Conditions: NIH3T3 cells cotransfected with N4×8-luc reporter and cDNA plasmid; 48 h culture, then mouse IL-4 0.5 ng/ml for 6 h
Method: As a preferable method, NIH3T3 cells are inoculated on 10% FBS (Fetal Bovine Serum)-containing IMDM medium in a 96-well cell culture plate to a final cell density of 1×10^4 cells/well, and cultured for 24 hours at 37° C., in the presence of 5% CO2. Then, the luciferase reporter plasmid N4×8-luc which has a STAT6 response sequence, and the expression vector are cotransfected into the cells in a well using FuGENE 6 (Roche). After 48 hours of culture at 37° C., in the presence of 5% CO2 mouse IL-4 (Immuno Biological Laboratories Co., Ltd.) is added to a final concentration of 0.5 ng/ml. After culturing for further 6 hours, promoting activity for STAT6 activation is then measured by measuring luciferase activity using a long term luciferase assay system, Picagene LT2.0 (Toyo Ink Mfg). For example, luciferase activity can be measured using PerkinElmer's Wallac ARVOTMST 1420 MULTILABEL COUNTER. The method for gene introduction by FuGENE6, and measurement of luciferase activity by Picagene LT2.0 can be performed respectively according to the attached protocols. In a method of gene introduction with a 96-well plate using FuGENE6, the amount of FuGENE6 per 1 well is suitably 0.3 to 0.5 μl, preferably 0.3 μl; the amount of N4×8-luc reporter plasmid is suitably 50 to 100 ng, preferably 100 ng; and the amount of expression vector is suitably 50 to 100 ng, preferably 100 ng. An ability (action) to promote STAT6 activation refers to an ability to increase the reporter activity (luciferase activity) relative to the control experiment (for cells into which the reporter gene and a null vector were introduced). Increase in reporter activity is preferably by a factor of 1.5 or more, more preferably by a factor of 3 or more, and still more preferably by a factor of 6 or more.
NIH3T3 cells (purchased from Dainippon Pharmaceutical) were grown to 1×10^4 cells/well in a 96 well plate for cell culture for 24 hours at 37° C. (in the presence of 5% CO2) using 10% FBS containing IMDM medium. Then, 100 ng of luciferase reporter plasmid N4×8-luc having a STAT6 response sequence and 2 μl of the full-length cDNA prepared in above Example 1.(3) were cotransfected into the cells in a well using FuGENE 6 (purchased from Roche) according to the manufacturer's protocol. The luciferase reporter plasmid N4×8-luc having the STAT6 response sequence was constructed as follows. […] 157, 2058-2065 (1996)], oligonucleotides having the following sequences were synthesized:
The synthesized oligonucleotides were dissolved in sterile water to be 1μg/μl, respectively, mixed in 10 μl lots, and adjusted the volume to 32 μl with sterile water. The solution was heated for 5 min at 90° C., and gradually cooled down to room temperature to prepare a double-stranded oligonucleotide solution. The solution was reacted with T4 polynucleotide kinase (Takara Shuzo) according to the attached manual, then the reaction product was purified in a usual manner. Separately, SV40 promoter region of pGL3-Promoter vector (Promega) was replaced by the HSV thymidine kinase promoter sequence (from −50 to +10) with Hind III site and BglII site to construct a vector tk-luc. The aforesaid double-stranded oligonucleotide fragments were inserted into the XhoI site of this tk-luc vector using T4 DNA ligase (GIBCO/BRL). The obtained clones were sequenced according to a usual method, and clones in which plural oligonucleotide fragments were inserted were selected. […] The four-interlinked DNA fragments were excised from the N4×4-luc with a XhoI and a BglII site and purified to be inserted into a BamHI and a XhoI site of pBluescript II KS+ (Stratagene). The four-interlinked DNA fragments were excised from this plasmid with KpnI and SpeI and inserted into a KpnI and a NheI site of N4×4-luc plasmid to finally obtain N4×8-luc.

Row | Molecule | Activity = (luciferase activity of the gene of each SEQ ID NO:)/(luciferase activity of pME18S-FL3)
1 | B1 | 33.5
2 | B2 | 105.1
3 | B3 | 1521.5
4 | B4 | 12.7

Reference: patent US20030092616A1, “STAT6 activation gene” (priority 2001, published 2003)
